# Data as given in patent publication US8357523B2, “Beta-glucosidase variant enzymes and related polynucleotides” (Codexis, Inc., priority 2009, dated 2013).
# Changes are numbered by the printed parent chain.
# B1: 284 (protein)
# chain: STAIAQEGAAPAAILHPEKWPRPATQRLIDPAVEKRVDALLKQLSVEEKVGQVIQGDIGTITPEDLRKYPLGSILAGGDSGPNGDDRAPPKEWLDLADAFYRVSLEKRPGHTPIPVLFGIDAVHGHGNIGSATIFPHNIALGMTRDPELLRRIGEVTAEEMAATGIDWTFAPALSVVRDDRWGRTYEGFSEDPEIVASYSAAIVEGVQGKYGSKDFMAPGRIVASAKHFLADGGTDQGRDQGDARISEDELIRIHNAGYPPAIDAGVLTVMASFSSWQGIKHHGHKQLLTDVLKGQMRFNGFIVGDWNAHEQVPGCTKFNCPTSLIAGLDMYMAADSWKQLYENTLAQVKDGTIPMARLDDAVRRILRVKVLAGLFEKPAPKDRPGLPGLETLGSPEHRAVGREAVRKSLVLLKNDKGTLPLSPKARVLVAGDGADNIGKQSGGWTISWQGTGNRNDEFPGATSILGGIRDAVADAGGSVEFDVAGQYKTKPDVAIVVFGEEPYAEFQGDVETLEYQPDQKQDLALLKKLKDQGIPVVAVFLSGRPMWVNPELNASDAFVAAWLPGTEGGGVADVLFTDKAGKVQHDFAGKLSYSWPRTAAQTTVNRGDADYNPLFAYGYGLTYKDKSKVGTLPEESGVPAEARQNAGIYFRAGALRLPGRFL
# B2: 287 (protein)
# chain: B1 chain with R298G, E311G
# B3: 285 (protein)
# chain: STAIAQEGAAPAAILHPEKWPRPATQRLIDPAVEKRVDALLKQLSVEEKVGQVIQGDIGTITPEDLRKYPLGSILAGGDSGPNGDDRAPPKEWLDLADAFYRVSLEKRPGHTPIPVLFGIDAVHGHGNIGSATIFPHNIALGMTRDPELLRRIGEVTAEEMAATGIDWTFAPALSVVRDDRWGRTYEGFSEDPEIVASYSAAIVEGVQGKYGSKDFMAPGRIVASAKHFLADGGTDQGRDQGDARISEDELIRIHNAGYPPAIDAGVLTVMASFSSWQGIKHHGHKQLLTDVLKGQMGFNGFIVGDWNAHDQVPGCTKFNCPTSLIAGLDMYMAADSWKQLYENTLAQVKDGTIPMARLDDAVRRILRVKVLAGLFEKPAPKDRPELPGLETLGSPEHRAVGREAVRKSLVLLKNDKGTLPLSPKARVLVAGDGADNIGKQSGGWTISWQGTGNRNDEFPGATSILGGIRDAVADAGGSVEFDVAGQYKTKPDVAIVVFGEEPYAEFQGDVETLEYQPDQKQDLALLKKLKDQGIPVVAVFLSGRPMWVNPELNASDAFVAAWLPGTEGGGVADVLFTDKAGKVQHDFAGKLSYSWPRTAAQTTVNRGDADYNPLFAYGYGLTYKDKSKVGTLPEESGVP
# B4: 215 (protein)
# chain: B3 chain with A10P, E386G
# B5: 214 (protein)
# chain: B3 chain with A3L, E386G
# B6: 217 (protein)
# chain: B3 chain with A10S, E386G
# B7: 216 (protein)
# chain: B3 chain with I14T, E386G
# B8: 222 (protein)
# chain: B3 chain with A5T, E386G
# B9: 428 (protein)
# chain: SAAITQEGAAPAAMLHPEKWPRPATQRLIDPAVEKRVDALLKQLSVEEKVGQVIQGDIGTITPEDLRKYPLGSILAGGDSGPNGDDRAPPKEWLDLADAFYRVSLEKRPGHTPIPVLFGIDAVHGHNNIGSATIFPHNIALGMTRDPELLRRIGEVTAEEMAATGIDWTFAPALSVPRDDRWGRTYEGFSEDPEIVASYSAAIVEGFQGKYGSKDFMAPGRAVACAKHFLADGGTDQGRDQGDARISEDELIRIHNAGYPPAIDAGVLTVMASFSSWQGIKHHGHKQLLTDVLKGQMGFNGFIVGDWNAHDQVPGCTKFNCPTSLIAGLDMYMAADSWKQLYENTLAQVKDGTIPMARLDDAVRRILRVKVLAGLFEKPAPKDRPGLPGLETLGSPEHRTVGREAVRKSLVLLKNDKGTLPLSPKARVLVAGDGADNIGKQSGGWTISWQGTGNRNDEFPGATSILGGIRDAVADAGGSVEFDVAGQYKTKPDVAIVVFGEEPYAEFQGDVETLEYQPDQKQDLTLLKKLKDQGIPVVAVFLSGRPMWVNPELNASDAFVAAWLPGTEGGGVADVLFTDKAGKVQHDFAGKLSYSWPRTAAQTTVNRGDADYNPLFAYGYGLTYKDKSKVGTLPEESGVPAEARQNAGIYFRAGALRLPGRFL
# modifications: truncated; signal peptide F-10T
# B10: 397 (protein)
# chain: B9 chain with A3R, M161V, P177V, I203Y, A222I, D383G, T400A, Q508R
# modifications: truncated; signal peptide F-10T
# B11: 393 (protein)
# chain: B9 chain with A3R, I4S, T400A, Q508R
# modifications: truncated; signal peptide F-10T
# B12: 431 (protein)
# chain: B9 chain with A13P, P109D, T400A, Q508R, T525S
# modifications: truncated; signal peptide F-10T
# B13: 430 (protein)
# chain: B9 chain with P109D, T400A, Q508R
# modifications: truncated; signal peptide F-10T
# B14: 434 (protein)
# chain: B9 chain with A13P, P177V, I203Y, E502N, Q508R
# modifications: truncated; signal peptide F-10T
# B15: 395 (protein)
# chain: B9 chain with A3R, I61V, T400A, Q508R
# modifications: truncated; signal peptide F-10T
# B16: 396 (protein)
# chain: B9 chain with I4S, T400A, Q508R, A601V
# modifications: truncated; signal peptide F-10T
# B17: 433 (protein)
# chain: B9 chain with A3R, T400A, Q508R
# modifications: truncated; signal peptide F-10T
# B18: 432 (protein)
# chain: B9 chain with A3R, P147T, I203Y, T400A, E502N, Q508R, H586Y
# modifications: truncated; signal peptide F-10T, I-14V
# B19: 429 (protein)
# chain: B9 chain with A13P, P147T, P177V, I203Y, T400A, Q508R, H586Y
# modifications: truncated; signal peptide F-10T
# Experiment: High throughput cellobiose assay: fold improvement in cellobiase activity of CelA variants over a control enzyme (Tables 2A-2D, 3, 5, 6, 7)
# Assay type: biochemical
# Conditions: 3.3 g/l cellobiose, 55° C. and pH 5.3 (incubation overnight)
row,Molecule,Fold improvement over Control Variant No. 94 from Table 2B
1,B1,"++++ (++++ = 1.1 to 1.5 fold improvement over Control No. 3, Variant No. 94)"
2,B2,"++++ (++++ = 1.1 to 1.5 fold improvement over Control No. 3, Variant No. 94)"
3,B3,"++++ (++++ = 1.1 to 1.5 fold improvement over Control No. 3, Variant No. 94)"
4,B4,"++++ (++++ = 1.1 to 1.5 fold improvement over Control No. 3, Variant No. 94)"
5,B5,"++++ (++++ = 1.1 to 1.5 fold improvement over Control No. 3, Variant No. 94)"
6,B6,"++++ (++++ = 1.1 to 1.5 fold improvement over Control No. 3, Variant No. 94)"
7,B7,"++++ (++++ = 1.1 to 1.5 fold improvement over Control No. 3, Variant No. 94)"
8,B8,"++++ (++++ = 1.1 to 1.5 fold improvement over Control No. 3, Variant No. 94)"

# Same assay, conditions: 3.3 g/l cellobiose, 65° C. and pH 5 (incubation overnight); relative to Control #5, Variant No. 366 (SEQ ID NO: 9)
row,Molecule,Fold Improvement over Control Variant
1,B9,++ (++ = 1.1 to 2.0 fold improvement over control Variant No. 366)
2,B10,++ (++ = 1.1 to 2.0 fold improvement over control Variant No. 366)
3,B11,++ (++ = 1.1 to 2.0 fold improvement over control Variant No. 366)
4,B12,++ (++ = 1.1 to 2.0 fold improvement over control Variant No. 366)
5,B13,++ (++ = 1.1 to 2.0 fold improvement over control Variant No. 366)
6,B14,++ (++ = 1.1 to 2.0 fold improvement over control Variant No. 366)
7,B15,++ (++ = 1.1 to 2.0 fold improvement over control Variant No. 366)
8,B16,++ (++ = 1.1 to 2.0 fold improvement over control Variant No. 366)
9,B17,++ (++ = 1.1 to 2.0 fold improvement over control Variant No. 366)
10,B18,++ (++ = 1.1 to 2.0 fold improvement over control Variant No. 366)
11,B19,++ (++ = 1.1 to 2.0 fold improvement over control Variant No. 366)
